Assay results: patent US20100255010A1 (Genentech, published 2010)

Tests used:
HER3-ECD-Fc = molecular target: T1, HER3-ECD-Fc (human, UniProt P21860 20-643, limits assumed); assay: radioligand blocking assay: antibody pre-bound to captured HER3-ECD-Fc, then 125I-HRG added; bound counts as % of control
T1 construct: extracellular domain; also called HER3-FC; HER3-IgG

[1] = molecular target: HER3 (form of the protein in the assay not stated) (UniProt P21860 20-643, limits assumed); assay: SPR BIAcore

Row | Binder | IC50 (read off the curve) (HER3-ECD-Fc) | binding result [1]
1 | D1.5-115, mIgG2A (antibody, V domains shown) VH: EVQLVESGGGLVQPGGSLRLSCAASGFTFTGNWIHWVRQAPGKGLEWVGEISPSGGYTDYADSVKGRFTISADTSKNTAYLQMNSLRAEDTAVYYCARESRVSYEAAMDYWGQGTLVTVSS VL: DIQMTQSPSSLSASVGDRVTITCRASQEIFPDVAWYQQKPGKAPKLLIYSASSLYSGVPSRFSGSGSGTDFTLTISSLQPEDFATYYCQQAAPTPYTFGQGTKVEIKR | ~3 nM | –
2 | D1.5-113, mIgG2A (antibody, V domains shown) VH: EVQLVESGGGLVQPGGSLRLSCAASGFTFTGNWIHWVRQAPGKGLEWVGEISPSGGYTDYADSVKGRFTISADTSKNTAYLQMNSLRAEDTAVYYCARESRVSYEAAMDYWGQGTLVTVSS VL: DIQMTQSPSSLSASVGDRVTITCRASQSLLASHDGTPWVAWYQQKPGKAPKLLIYDASYLYSGVPSRFSGSGSGTDFTLTISSLQPEDFATYYCQQSTFAPYTFGQGTKVEIKR | ~3 nM | –
3 | D1.5-116, mIgG2A (antibody, V domains shown) VH: EVQLVESGGGLVQPGGSLRLSCAASGFTFTGNWIHWVRQAPGKGLEWVGEISPSGGYTDYADSVKGRFTISADTSKNTAYLQMNSLRAEDTAVYYCARESRVSYEAAMDYWGQGTLVTVSS VL: DIQMTQSPSSLSASVGDRVTITCRASQAIASDVAWYQQKPGKAPKLLIYSASFLYSGVPSRFSGSGSGTDFTLTISSLQPEDFATYYCQQSEPEPYTFGQGTKVEIKR | ~4 nM | –
4 | DL11b (bispecific antibody, V domains shown) VH: EVQLVESGGGLVQPGGSLRLSCAASGFTLSGDWIHWVRQAPGKGLEWLGEISAAGGYTDYADSVKGRFTISADTSKNTAYLQMNSLRAEDTAVYYCARESRVSFEAAMDYWGQGTLVTVSS VL: DIQMTQSPSSLSASVGDRVTITCRASQNIATDVAWYQQKPGKAPKLLIYSASFLYSGVPSRFSGSGSGTDFTLTISSLQPEDFATYYCQQSEPEPYTFGQGTKVEIKR | – | binds
5 | D1.5-121, mIgG2A (antibody, V domains shown) VH: EVQLVESGGGLVQPGGSLRLSCAASGFTFTGNWIHWVRQAPGKGLEWVGEISPSGGYTDYADSVKGRFTISADTSKNTAYLQMNSLRAEDTAVYYCARESRVSYEAAMDYWGQGTLVTVSS VL: DIQMTQSPSSLSASVGDRVTITCRASQDVGSDLAWYQQKPGKAPKLLIYSASYLYSGVPSRFSGSGSGTDFTLTISSLQPEDFATYYCQQSDPEPYTFGQGTKVEIKR | ~5 nM | –
